This note sets out measurements from article PMC9168836, “Clamping of DNA shuts the condensin neck gate” (Proceedings of the National Academy of Sciences of the …, 2021).

One assay deals with T1, Smc4-3xStrepII (budding yeast (S. cerevisiae), UniProt Q12267 1-1418).
T1 construct: Smc4, SMC subunit of budding yeast (S. cerevisiae) condensin; only the head domain, proximal coiled coil and residues 126-144 are resolved in the maps; The tag's end is read from the plasmid's name SMC4-3xStrepII; also called Scm4
T1 sequence: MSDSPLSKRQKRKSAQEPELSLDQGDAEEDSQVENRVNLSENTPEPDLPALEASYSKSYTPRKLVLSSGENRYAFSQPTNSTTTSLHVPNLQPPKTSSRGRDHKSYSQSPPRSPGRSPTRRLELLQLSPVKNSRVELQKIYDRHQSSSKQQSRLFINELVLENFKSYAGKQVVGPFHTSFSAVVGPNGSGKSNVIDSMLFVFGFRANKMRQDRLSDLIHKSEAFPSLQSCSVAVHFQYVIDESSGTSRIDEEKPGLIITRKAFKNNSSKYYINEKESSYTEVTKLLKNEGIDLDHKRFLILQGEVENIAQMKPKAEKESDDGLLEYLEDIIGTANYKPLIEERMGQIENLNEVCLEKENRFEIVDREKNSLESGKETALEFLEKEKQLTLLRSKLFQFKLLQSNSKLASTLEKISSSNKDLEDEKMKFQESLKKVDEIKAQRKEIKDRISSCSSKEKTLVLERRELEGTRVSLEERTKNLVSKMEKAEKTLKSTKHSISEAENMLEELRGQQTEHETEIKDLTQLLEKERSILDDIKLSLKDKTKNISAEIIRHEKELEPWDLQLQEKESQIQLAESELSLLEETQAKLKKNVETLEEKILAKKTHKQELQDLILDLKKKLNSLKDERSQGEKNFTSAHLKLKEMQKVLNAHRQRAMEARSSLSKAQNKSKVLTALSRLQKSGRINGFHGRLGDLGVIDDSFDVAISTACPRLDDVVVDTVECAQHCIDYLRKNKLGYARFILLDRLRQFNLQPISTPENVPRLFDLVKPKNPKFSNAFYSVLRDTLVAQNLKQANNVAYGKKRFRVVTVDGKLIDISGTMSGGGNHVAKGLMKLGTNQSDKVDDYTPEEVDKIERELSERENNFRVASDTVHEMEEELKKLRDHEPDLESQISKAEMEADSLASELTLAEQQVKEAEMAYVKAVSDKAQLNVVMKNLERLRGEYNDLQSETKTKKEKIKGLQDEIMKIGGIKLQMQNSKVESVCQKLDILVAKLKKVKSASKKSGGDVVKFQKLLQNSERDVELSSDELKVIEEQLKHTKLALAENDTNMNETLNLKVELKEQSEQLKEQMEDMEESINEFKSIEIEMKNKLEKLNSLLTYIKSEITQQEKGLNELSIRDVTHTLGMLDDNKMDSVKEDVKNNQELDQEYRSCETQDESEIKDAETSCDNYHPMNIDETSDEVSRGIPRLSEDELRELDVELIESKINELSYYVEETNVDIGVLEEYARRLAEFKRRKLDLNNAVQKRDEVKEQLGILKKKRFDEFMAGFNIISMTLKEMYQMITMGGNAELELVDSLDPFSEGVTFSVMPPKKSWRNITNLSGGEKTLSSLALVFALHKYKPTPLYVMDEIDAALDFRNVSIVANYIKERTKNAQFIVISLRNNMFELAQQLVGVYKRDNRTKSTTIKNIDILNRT
As to the kind of experiment: cryo-EM structure; condensin pentamer (Smc2, Smc4, Brn1, Ycs4, Ycg1) with 80-bp dsDNA, 5 mM ADP, 1 mM BeSO4, 10 mM NaF in TNT buffer pH 7.5; separate maps of the clamped head module and of Ycg1-DNA. Particulars: both partners purified.

Another assay addresses T2, Ycg1 (budding yeast (S. cerevisiae), UniProt Q06680 1-1035).
T2 construct: Ycg1, HAWK (HEAT repeat) subunit of budding yeast (S. cerevisiae) condensin
T2 sequence: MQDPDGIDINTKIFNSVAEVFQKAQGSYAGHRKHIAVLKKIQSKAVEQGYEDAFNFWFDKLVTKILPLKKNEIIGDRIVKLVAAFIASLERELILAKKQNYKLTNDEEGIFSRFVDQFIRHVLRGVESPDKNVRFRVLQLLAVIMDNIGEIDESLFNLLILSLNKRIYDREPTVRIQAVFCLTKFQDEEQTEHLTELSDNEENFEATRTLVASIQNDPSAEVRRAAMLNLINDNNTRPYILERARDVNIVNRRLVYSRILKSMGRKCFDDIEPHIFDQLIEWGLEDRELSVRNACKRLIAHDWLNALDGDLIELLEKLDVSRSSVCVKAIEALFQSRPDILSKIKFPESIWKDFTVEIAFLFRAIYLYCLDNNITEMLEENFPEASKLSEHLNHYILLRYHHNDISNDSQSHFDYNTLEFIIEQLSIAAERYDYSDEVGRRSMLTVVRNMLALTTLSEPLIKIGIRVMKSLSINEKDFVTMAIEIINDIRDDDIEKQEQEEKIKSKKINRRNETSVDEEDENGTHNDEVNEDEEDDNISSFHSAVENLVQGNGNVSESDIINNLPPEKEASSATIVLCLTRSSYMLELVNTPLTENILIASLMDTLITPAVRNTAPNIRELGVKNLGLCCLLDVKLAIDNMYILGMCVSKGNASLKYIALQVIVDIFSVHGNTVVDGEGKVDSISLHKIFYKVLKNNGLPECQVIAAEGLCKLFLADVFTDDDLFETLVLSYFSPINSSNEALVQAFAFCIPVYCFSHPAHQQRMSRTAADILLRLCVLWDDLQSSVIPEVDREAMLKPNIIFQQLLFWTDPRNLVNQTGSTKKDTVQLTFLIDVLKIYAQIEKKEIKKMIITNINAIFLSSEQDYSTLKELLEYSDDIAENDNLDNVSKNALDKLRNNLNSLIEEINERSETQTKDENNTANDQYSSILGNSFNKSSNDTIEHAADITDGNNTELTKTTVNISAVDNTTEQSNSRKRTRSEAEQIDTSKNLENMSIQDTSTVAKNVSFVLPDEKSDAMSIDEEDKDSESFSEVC
The description is as above. Particulars: both partners purified.

B1: Brn1-HA3-His12 (natural protein, budding yeast (S. cerevisiae), UniProt P38170 1-754, looked up)
chain: MTTQLRYENNDDDERVEYNLFTNRSTMMANFEEWIKMATDNKINSRNSWNFALIDYFYDLDVLKDGENNINFQKASATLDGCIKIYSSRVDSVTTETGKLLSGLAQRKTNGASNGDDSNGGNGEGLGGDSDEANIEIDPLTGMPISNDPDVNNTRRRVYNRVLETTLVEFETIKMKELDQELIIDPLFKKALVDFDEGGAKSLLLNTLNIDNTARVIFDASIKDTQNVGQGKLQRKEEELIERDSLVDDENEPSQSLISTRNDSTVNDSVISAPSMEDEILSLGMDFIKFDQIAVCEISGSIEQLRNVVEDINQAKDFIENVNNRFDNFLTEEELQAAVPDNAEDDSDGFDMGMQQELCYPDENHDNTSHDEQDDDNVNSTTGSIFEKDLMAYFDENLNRNWRGREHWKVRNFKKANLVNKESDLLEETRTTIGDTTDKNTTDDKSMDTKKKHKQKKVLEIDFFKTDDSFEDKVFASKGRTKIDMPIKNRKNDTHYLLPDDFHFSTDRITRLFIKPGQKMSLFSHRKHTRGDVSSGLFEKSTVSANHSNNDIPTIADEHFWADNYERKEQEEKEKEQSKEVGDVVGGALDNPFEDDMDGVDFNQAFEGTDDNEEASVKLDLQDDEDHKFPIRENKVTYSRVSKKVDVRRLKKNVWRSINNLIQEHDSRKNREQSSNDSETHTEDESTKELKFSDIIQGISKMYSDDTLKDISTSFCFICLLHLANEHGLQITHTENYNDLIVNYEDLATTQAAS
notes: Brn1, kleisin subunit of budding yeast (S. cerevisiae) condensin; 754 residues as printed (279/754 traced in the head module map); The tags' end is read from the plasmid's name BRN1-HA3-His12; also called kleisin Brn1
Regarding B1, the binding result with Smc4-3xStrepII and with Ycg1 was “binds” in each case.
